Assay results from patent publication US20200325187A1 (Genentech, published 2020).
Like-named read-outs stand apart in the source and are kept apart here.

Experiments:
hVEGF-A (8-109) [1] = molecular target: T1, hVEGF-A (8-109) (human, UniProt P15692 214-315); experiment: spot phage ELISA
T1 sequence (looked up): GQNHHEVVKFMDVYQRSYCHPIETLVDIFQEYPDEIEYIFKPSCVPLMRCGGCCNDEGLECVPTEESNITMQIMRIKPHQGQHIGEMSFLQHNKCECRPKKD
Description: (§1) After four rounds of binding selection, individual phage clones were picked and inoculated into 450 μl 2YT media containing 50 µg/ml Carbenecillin and M13-KO7 helper phage in 96-well blocks, which were grown at 37° C. overnight. […] The plates were washed and bound phage was detected with anti-M13-HRP followed by TMB substrate. In these assays, phage binding to BSA alone was tested in parallel to assess background binding. […] Positive clones were subjected to DNA sequence analysis.

hVEGF-A [2] = molecular target: T2, hVEGF-A (human, UniProt P15692-4 27-191, limits assumed); experiment: cell-based or functional assay
hVEGF-A [3] = molecular target: T2, hVEGF-A; experiment: KDR-VEGF competition ELISA
hVEGF-A (8-109) [4] = molecular target: T1, hVEGF-A (8-109); experiment: spot phage ELISA; remark: listed apart in the source
Description: as §1

hVEGF-A [5] = molecular target: T2, hVEGF-A; experiment: phage competition ELISA, soluble CKP
hVEGF-A [6] = molecular target: T2, hVEGF-A; experiment: cell-based or functional assay; remark: listed apart in the source
hVEGF-A (8-109) [7] = molecular target: T1, hVEGF-A (8-109); experiment: phage competition ELISA (clone on phage; the concentration varied on the axis is that of hVEGF (8-109))
hVEGF-A (8-109) [8] = molecular target: T1, hVEGF-A (8-109); experiment: as above; remark: listed apart in the source
hVEGF-A (8-109) [9] = molecular target: T1, hVEGF-A (8-109); experiment: spot phage ELISA; remark: listed apart in the source
Description: as §1

Binder: GCNIMLPFWGCGLDYDCLAGCVCQYYQSCG (designed binder) [VEGF_CKP9.54.2]
- ELISA (hVEGF-A (8-109) [1]): 0.1
- S/N vs BSA (hVEGF-A (8-109) [1]): 26
- Cellular IC50 (hVEGF-A [2]): 4.3 nM
- IC50 (hVEGF-A [3]): 0.2 nM

Binder: GCNIMLPFWGCGPDLQCLAGCVCQYYQSCG (designed binder) [VEGF_CKP9.54.59]
- ELISA (hVEGF-A (8-109) [1]): 2.3
- S/N vs BSA (hVEGF-A (8-109) [1]): 35.4
- Cellular IC50 (hVEGF-A [2]): 3.06 nM
- IC50 (hVEGF-A [3]): 0.5 nM

Binder: GCQISQPFWGCKQDSDCLAGCVCHFYNSCG (designed binder) [VEGF_CKP9.3]
- ELISA (hVEGF-A (8-109) [4]): 1.6
- S/N vs BSA (hVEGF-A (8-109) [4]): 24.5
- IC50 (hVEGF-A [5]): 1500 nM

Binder: GCNIMLPFWGCGRDFECFINCICQYYQSCG (designed binder) [VEGF_CKP9.54.90.44]
- Cellular IC50 (hVEGF-A [6]): 1.16 nM
- FOLD [..] [..] TO VARIANT 9.54.90 (hVEGF-A [6]): 1.16 fold

Binder: CNIMLPYWGCGRDFECLAGCVCQYYQSC (designed binder) [9.54.90.F7Y.A2G]
- Cellular IC50 (hVEGF-A [6]): 3.01 nM
- FOLD [..] [..] TO VARIANT 9.54.90 (hVEGF-A [6]): 0.44 fold

Binder: GCNIMLPFWGCGRDFECMQTCICQYYQSCG (designed binder) [VEGF_CKP9.54.90.25]
- Cellular IC50 (hVEGF-A [6]): 1.26 nM
- FOLD [..] [..] TO VARIANT 9.54.90 (hVEGF-A [6]): 1.07 fold

Binder: GCNIMLPYWGCGRDFECFYECICQYYQSCG (designed binder) [VEGF_CKP9.54.90.62.F8Y]
- Cellular IC50 (hVEGF-A [6]): 1.14 nM
- FOLD [..] [..] TO VARIANT 9.54.90 (hVEGF-A [6]): 1.18 fold

Binder: GCDRMQPLWGCKQDSDCLAGCVCLWYKSCG (designed binder) [VEGF_CKP9.4]
- IC50 (hVEGF-A [5]): 1950 nM

Binder: GCNIMLPYWGCGRDFECMNQCICQYYQSCG (designed binder) [VEGF_CKP9.54.90.13.F8Y]
- Cellular IC50 (hVEGF-A [6]): 2.02 nM
- FOLD [..] [..] TO VARIANT 9.54.90 (hVEGF-A [6]): 0.67 fold

Binder: GCDVMQPYWGCEMDFDCLAGCICHWYNSCGFS (designed binder) [9.63.44-1]
- IC50 (read off the curve) (hVEGF-A (8-109) [7]): ~0.04 nM

Binder: GCDVMQPYWGCEMDFDCLAGCICHWYNSCGPT (designed binder) [9.63.44-5]
- binding result (hVEGF-A (8-109) [7]): binds

Binder: GCDVMQPYWGCEMDFDCLAGCICHWYNSCGTS (designed binder) [9.63.44-8]
- IC50 (read off the curve) (hVEGF-A (8-109) [8]): ~0.02 nM

Binder: GCDVMQPYWGCEMDFDCLAGCVCHWYNSCGQF (designed binder) [9.63.44-13]
- IC50 (read off the curve) (hVEGF-A (8-109) [8]): ~0.3 nM

Binder: GCDVMQPYWGCEMDFDCLAGCVCHWYNSCGPL (designed binder) [9.63.44-12]
- IC50 (read off the curve) (hVEGF-A (8-109) [8]): ~0.1 nM

Binder: GCDVMQPYWGCEMDFDCLVGCVCHWYNSCGDE (designed binder) [9.63.44-10]
- IC50 (read off the curve) (hVEGF-A (8-109) [8]): ~5 nM

Binder: GCDVMQPYWGCEMDFDCLAGCICHWYNSCGWK (designed binder) [9.63.44-14 (SEQ ID NO: 532)]
- IC50 (read off the curve) (hVEGF-A (8-109) [8]): ~0.07 nM

Binder: GCDVMQPYWGCEMDFDCLAGCVCHWYNSCGGI (designed binder) [9.63.44-7]
- IC50 (read off the curve) (hVEGF-A (8-109) [7]): ~0.03 nM

Binder: GCDVMQPYWGCEMDFDCLAGCICHWYNSCGLQ (designed binder) [9.63.44-9]
- IC50 (read off the curve) (hVEGF-A (8-109) [8]): ~0.03 nM

Binder: GCDVMQPYWGCEMDFDCLAGCVCHWYNSCGDL (designed binder) [9.63.44-11]
- binding result (hVEGF-A (8-109) [8]): binds

Binder: GCDVMQPYWGCEMDFDCLAGCICHWYNSCGSR (designed binder) [9.63.44-4]
- IC50 (read off the curve) (hVEGF-A (8-109) [7]): ~0.04 nM

Binder: GCDVMQPYWGCEMDFDCLAGCICHWYNSCGYA (designed binder) [9.63.44-3]
- IC50 (read off the curve) (hVEGF-A (8-109) [7]): ~0.03 nM

Binder: GCDVMQPYWGCEMDFDCLAGCVCHWYNSCGSM (designed binder) [9.63.44-6]
- binding result (hVEGF-A (8-109) [7]): binds

Binder: GCDVMQPYWGCEMDFDCLAGCICHWYNSCGQV (designed binder) [9.63.44-2]
- IC50 (read off the curve) (hVEGF-A (8-109) [7]): ~0.03 nM

Binder: GCDVMQPYWGCGPDIDCLSNCICHWYNSCG (designed binder) [VEGF_CKP9.63.12.12]
- Cellular IC50 (hVEGF-A [6]): 0.56 nM
- FOLD [..] [..] TO VARIANT 9.54.90 (hVEGF-A [6]): 2.41 fold

Binder: GCDVMQPYWGCGENFLCLAGCVCHWYNSCG (designed binder, also called L2.9.63.1) [VEGF_CKP9.63.1]
- ELISA (hVEGF-A (8-109) [1]): 2
- S/N vs BSA (hVEGF-A (8-109) [1]): 25.2
- Cellular IC50 (hVEGF-A [2]): 0.49 nM
- IC50 (hVEGF-A [3]): 0.4 nM

Binder: GCDVMQPYWGCGESLSCLAGCVCHWYNSCG (designed binder, also called L2.9.63.69) [VEGF_CKP9.63.69]
- ELISA (hVEGF-A (8-109) [1]): 2.9
- S/N vs BSA (hVEGF-A (8-109) [1]): 23.7
- Cellular IC50 (hVEGF-A [2]): 26.4 nM
- IC50 (hVEGF-A [3]): 2.1 nM

Binder: GCDPMQPFWGCKQDSDCLAGCVCRWYQSCG (designed binder) [VEGF_CKP9.59]
- IC50 (hVEGF-A [5]): 5820 nM

Binder: GCNLMLPFWGCKQDSDCLAGCVCRWYHSCG (designed binder) [VEGF_CKP9.20]
- IC50 (hVEGF-A [5]): 1340 nM

Binder: GCDIMQPLWGCKQDSDCLAGCVCHWYQSCG (designed binder) [VEGF_CKP9.L1.68]
- ELISA (hVEGF-A (8-109) [9]): 2
- S/N vs BSA (hVEGF-A (8-109) [9]): 23.2

Binder: GCDVMQPYWGCGRDMDCLAGCVCHWYNSCG (designed binder, also called L2.9.63.27) [VEGF_CKP9.63.27]
- ELISA (hVEGF-A (8-109) [1]): 2.1
- S/N vs BSA (hVEGF-A (8-109) [1]): 26
- Cellular IC50 (hVEGF-A [2]): 5.28 nM
- IC50 (hVEGF-A [3]): 0.3 nM

Binder: GCKLFEPLWGCKQDSDCLAGCVCRWYESCG (designed binder) [VEGF_CKP9.96]
- ELISA (hVEGF-A (8-109) [4]): 1.2
- S/N vs BSA (hVEGF-A (8-109) [4]): 18.4
- IC50 (hVEGF-A [5]): 49000 nM

Binder: GCDLMQPLWGCKQDSDCLAGCVCHWYQSCG (designed binder) [VEGF_CKP9.L1.76]
- ELISA (hVEGF-A (8-109) [9]): 2.5
- S/N vs BSA (hVEGF-A (8-109) [9]): 17.4

Binder: GCDVMQPYWGCEMDFDCLAGCVCHWYNSCG (designed binder, also called L2.9.63.44) [VEGF_CKP9.63.44]
- ELISA (hVEGF-A (8-109) [1]): 1.7
- S/N vs BSA (hVEGF-A (8-109) [1]): 19.5
- Cellular IC50 (hVEGF-A [2]): 2.05 nM
- IC50 (hVEGF-A [3]): 0.2 nM

Binder: GCNPMLPFWGCKQDSDCLAGCVCHWYQSCG (designed binder) [VEGF_CKP9.L1.57]
- ELISA (hVEGF-A (8-109) [9]): 3.7
- S/N vs BSA (hVEGF-A (8-109) [9]): 31.8

Binder: GCNVLLPLWGCKQDSDCLAGCVCHWYQSCG (designed binder) [VEGF_CKP9.L1.64]
- ELISA (hVEGF-A (8-109) [9]): 2.3
- S/N vs BSA (hVEGF-A (8-109) [9]): 19.9

Binder: GCHRLQPLWGCKQDSDCLAGCVCHWYQSCG (designed binder) [VEGF_CKP9.L1.19]
- ELISA (hVEGF-A (8-109) [9]): 1.4
- S/N vs BSA (hVEGF-A (8-109) [9]): 11.6

Binder: GCNPMLPLWGCKQDSDCLAGCVCHWYQSCG (designed binder) [VEGF_CKP9.L1.78]
- ELISA (hVEGF-A (8-109) [9]): 3
- S/N vs BSA (hVEGF-A (8-109) [9]): 25.1

Binder: GCQVLQPSWGCKQDSDCLAGCVCHWYQSCG (designed binder) [VEGF_CKP9.L1.79]
- ELISA (hVEGF-A (8-109) [9]): 1.2
- S/N vs BSA (hVEGF-A (8-109) [9]): 10
